# B1: MQ155 (antibody, IgG1, V domains shown)
# VH: QVQLQQPGAELVRPGASVKLSCKASGYTFTTYWMNWVKQRPEQGLEWIGRIDPYDSETHYNQKFKDKAILTVDKSSSTAYMQLSSLTSEDSAVYYCARGPYYGTNPWFPYWGQGTLVTVSS
# VL: DVQITQSPSYLAASPGETITINCRASKSISKYLAWYQEKPGKTNKLLIYSGSTLQSGIPSRFSGSGSGTDFTLTISSLEPEDFAMYYCQQHHEYPYTFGGGTKLEIK
# notes: Mouse monoclonal from hybridoma, IgG1 kappa; also called anti-Muc17 antibody MQ155
# B2: chi.MQ155 (anti-Muc17 mouse-human chimeric antibody MQ155) (antibody, human IgG1, kappa, V domains shown)
# VH: B1 VH
# VL: DVQITQSPSYLAASPGETITINCRASKSISKYLAWYQEKPGKTNKLLIYSGSTLQSGIPSRFSGSGSGTDFTLTISSLEPEDFAMYYCQQHHEYPYTFGGGTKLEIKR
# notes: Human IgG1 / kappa constant regions; also called chi.MQ155(DG); chi.MQ155(FTKO)
# Legend:
# [1] = target: T1, Muc17ct_mIgG2aFc (soluble human Muc17ct / mouse IgG2a Fc fusion protein) (human); experiment: ELISA screening of hybridoma supernatant on immobilized Muc17ct_mIgG2aFc
# [2] = target: T2, GST_Muc17ct_del2 (4244Ser-4390Leu) (human, UniProt Q685J3 4244-4390); experiment: ELISA, GST fusion immobilized at 1 µg/mL
# T2 construct: not shown: GST encoded by vector pGEX4T-3 (Takara Bio)
# [3] = target: T3, GST_Muc17ct_del3 (4115Thr-4243Gly) (human, UniProt Q685J3 4115-4243); experiment: ELISA, GST fusion immobilized at 1 µg/mL
# T3 construct: not shown: GST encoded by vector pGEX4T-3 (Takara Bio)
# [4] = target: Mucin 17 (Muc17) on AsPc1 pancreatic cancer cells (human, UniProt Q685J3 26-4493); experiment: flow cytometry on AsPc1 cells, FITC anti-human IgG detection
# Procedure: Binding of the antibodies to a pancreatic cancer cell line AsPc1 was evaluated by flow cytometry. The cells were suspended in FACS buffer (1% FBS/PBS) at 5×10⁵ cells/mL and dispensed into Multiscreen-HV Filter Plates (Millipore), and the supernatant was removed by centrifugation. Anti-Muc17 antibody diluted to a suitable concentration was added and reacted for 30 minutes on ice. The cells were washed once with FACS buffer. FITC-labeled anti-human IgG antibody was added, and reacted for 30 minutes on ice. Then the supernatant was removed by centrifugation, the cell were suspended in 100 μL FACS buffer and applied to flow cytometry. Flow cytometry was run on FACS Calibur (Becton, Dickinson and Company). The viable cell population was gated with a forward scatter and side scatter histogram.
# [5] = target: T1, Muc17ct_mIgG2aFc (soluble human Muc17ct …); experiment: ELISA, Muc17ct_mIgG2aFc coated at 1 µg/mL, anti-human kappa chain detection
# Procedure: Muc17ct_mIgG2aFc protein was diluted with coating buffer (0.1 mol/L NaHCO₃ (pH 9.6), 0.02% (w/v) NaN₃) to give 1 μg/mL of Muc17ct_mIgG2aFc protein, and added to an immunoplate for overnight at 4° C. for coating. The plate was blocked with dilution buffer (50 mM Tris-HCl (pH 8.1), 1 mM MgCl₂, 150 mM NaCl, 0.05% (v/v) Tween20, 0.02% (w/v) NaN₃, 1% (w/v) BSA); then the anti-Muc17 antibody was added for 1 hour at room temperature. After washing with rinse buffer (0.05% (v/v) Tween20, PBS), an alkali phosphatase-labeled anti-human κ chain antibody (Sigma, CAT#A3813) was added for 1 hour at room temperature. After washing with rinse buffer, SIGMA104 (Sigma) diluted at 1 mg/mL in the substrate buffer (50 mM NaHCO₃ (pH 9.8), 10 mM MgCl₂) was added. After color development for 1 hour at room temperature, the absorbance (405 nm, reference 655 nm) was measured using a Benchmark Plus (BIO-RAD Laboratories, Inc.).
# T1 sequence (chain, as listed by the source limits assumed): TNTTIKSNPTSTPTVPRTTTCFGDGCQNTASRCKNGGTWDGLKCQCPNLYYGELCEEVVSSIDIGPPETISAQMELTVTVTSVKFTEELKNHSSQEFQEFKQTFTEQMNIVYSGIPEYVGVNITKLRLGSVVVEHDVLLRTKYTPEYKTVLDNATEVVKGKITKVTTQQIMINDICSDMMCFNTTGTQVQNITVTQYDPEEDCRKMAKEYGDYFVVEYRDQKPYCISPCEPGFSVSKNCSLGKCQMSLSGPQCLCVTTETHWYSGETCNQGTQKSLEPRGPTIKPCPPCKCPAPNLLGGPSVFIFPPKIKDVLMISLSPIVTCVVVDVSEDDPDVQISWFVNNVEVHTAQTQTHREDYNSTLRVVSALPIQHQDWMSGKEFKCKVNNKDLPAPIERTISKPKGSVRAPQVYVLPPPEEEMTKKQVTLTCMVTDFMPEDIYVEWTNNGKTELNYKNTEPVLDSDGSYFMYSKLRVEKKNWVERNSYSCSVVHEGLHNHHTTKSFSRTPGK
binder,measurement,setting,value
B1,binding result,[1],binds
same,binding result,[2],no binding (tested: 3 µg/mL)
same,binding result,[3],no binding (tested: 3 µg/mL)
B2,binding result,[4],binds
same,binding result,[5],binds
